Experimental data from article PMC7124252.

Experiments:
CTCF (human) [1] = target: T1, CTCF (human) (UniProt P49711); assay: EMSA; conditions: 10 mM Tris (pH not stated), 50 mM KCl, 5 mM MgCl2, 0.1 mM ZnSO4, 1 mM DTT, 0.1% NP-40, 50 ng/µl poly(dI-dC), 2.5% glycerol, 20 fmol probe, 30 min at 25 C
T1 sequence: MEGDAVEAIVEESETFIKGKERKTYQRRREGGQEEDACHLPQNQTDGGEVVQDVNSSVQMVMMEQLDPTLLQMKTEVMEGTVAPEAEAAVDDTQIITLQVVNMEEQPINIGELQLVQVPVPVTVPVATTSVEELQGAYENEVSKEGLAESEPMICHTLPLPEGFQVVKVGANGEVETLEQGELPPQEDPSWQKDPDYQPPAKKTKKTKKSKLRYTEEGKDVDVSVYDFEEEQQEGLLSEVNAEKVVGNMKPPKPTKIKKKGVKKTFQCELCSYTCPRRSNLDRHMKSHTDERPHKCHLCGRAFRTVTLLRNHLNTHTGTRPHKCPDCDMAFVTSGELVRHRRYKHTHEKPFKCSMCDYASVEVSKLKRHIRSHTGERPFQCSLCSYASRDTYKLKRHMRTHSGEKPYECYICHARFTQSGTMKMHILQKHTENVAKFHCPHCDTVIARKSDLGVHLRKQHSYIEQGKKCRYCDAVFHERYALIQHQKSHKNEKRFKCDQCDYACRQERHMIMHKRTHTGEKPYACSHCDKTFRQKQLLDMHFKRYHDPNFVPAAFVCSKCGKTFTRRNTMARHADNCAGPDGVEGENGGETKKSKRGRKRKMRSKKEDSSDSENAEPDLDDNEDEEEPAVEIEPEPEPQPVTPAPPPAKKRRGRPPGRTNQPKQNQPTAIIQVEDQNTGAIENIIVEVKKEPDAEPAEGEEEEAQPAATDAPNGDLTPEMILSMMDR

CTCF (human) [2] = assay: EMSA; set-up: unit not given here; conditions: 10 mM Tris (pH not stated), 50 mM KCl, 5 mM MgCl2, 0.1 mM ZnSO4, 1 mM DTT, 0.1% NP-40, 50 ng/µl poly(dI-dC), 2.5% glycerol, 20 fmol probe, 30 min at 25 C

ACCTGTAACATTTCCTTTCCAGTTGCCGGATTCATTATAAGGATATGTACAGTTTGTTGCGTTGTATTGCGCCACCCGTTGGCTTAGGAAAGAACTGCCCTCGTAGGTTGGCCTACAAGGTTTGCAACTTCAGAGCCTC (double strand) [Cacna1b e37a DNA probe (139 bp)]
binding signal (CTCF (human) [1]): binds

Cacna1b e37a DNA probe (139 bp)
Kd (CTCF (human) [2]): 0.0461

TCAGTGCAGGGTCAAGGTCTACCTTGTATGCAACTCGAGCCGGGCATTTCTTCCCCAACCCCAGAGGTGGGGACATGTGTTTCAGCATCTCAAACATGTCATTGTAACTGATGCGCCCACTGGAAACCCGTTCCAGAGG (double strand) [Cacna1b e37b DNA probe (139 bp)]
binding (CTCF (human) [1]): no binding
